# Source: the supplement of paper PMC9170038
# Legend:
# MS2 coat protein [1] = assay: apparent KD of MS2 coat protein, switch ON state; designed switch direction (-1 OFF switch, 1 ON switch): -1; higher = weaker reporter binding; settings: FMN input: 0 or 200 uM; Eterna round: R93 (includes R88 designs)
# Method in brief: (§1)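 Each design's apparent KD comes from the median of binding-curve fits to its normalised clusters. Those clusters carried RNA switches transcribed on-chip from Illumina sequencing clusters. SNAP-549-labelled MS2 coat protein was titrated onto them in twofold steps (0.7 or 1.5 nM to 3 µM; per step 0.8–1.5 h down to 10–20 min). Conditions were 100 mM Tris-HCl pH 7.5, 80 mM KCl, 4 mM MgCl2, without or with constant ligand.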
# MS2 coat protein [2] = assay: apparent KD of MS2 coat protein, switch OFF state (with FMN for OFF switches, without FMN for ON switches); designed switch direction (-1 OFF switch, 1 ON switch): -1; higher = weaker reporter binding; settings: FMN input: 0 or 200 uM; Eterna round: R93 (includes R88 designs)
# Method in brief: as §1
Sequence,apparent KD of MS2 coat protein (MS2 coat protein [1]) [nM],apparent KD of MS2 coat protein (MS2 coat protein [2]) [nM]
AAGAAAGGAGGAUAUACAUGAGGAUCACCCAUGUAAAAGAAAGAGGGAAAAGAGAAAAGUAGAAGGCCUAAGAA [Ptolemy IX Soter II],30.8,39.1
AAGAACACAGGAUAUACAUGAGGAUCACCCAUGUAAAAGAAAGAAAGGGAAAAGAAAAGUAGAAGGGUGAAGAA [Aakheperre Pasebakhenniut I],40,72.6
AAGAACAUAGGAUAUACAAAAUAAAAGAAAAGAAAGAAAGAACAUGAGGAUCACCCAUGUAGAAGGAUGAAGAA [Khakaure Senusret III],39,24.4
AAGAACCGAGGAUAUACAUGAAAGAAAGAAAAGAAAAGAAAACAUGAGGAUCACCCAUGUAGAAGGCGGAAGAA [EteRNA is fun!],27.4,35.3
AAGAACCUAGGAUAUACAUGAAAGAAAGAAAAGAAAAGAAAACAUGAGGAUCACCCAUGUAGAAGGAGGUAGAA [EteRNA is fun!],26.7,50.5
AAGAACCUAGGAUAUACAUGAGGAUCACCCAUGUAAAAGAAAGAAAAGGGAAAGAAAAGUAGAAGGAGGAAGAA [Menmire-setpenre Amenmesse],18.4,22.2
AAGAACGAAGGAUAUACAUGAAAGAAAGAAAAGAAAAGAAAACAUGAGGAUCACCCAUGUAGAAGGUCGUAGAA [EteRNA is fun!],26.2,28.8
AAGAACGGAGGAUAUACAAAAUAAAAGAAAAGAAAGAAAGAACAUGAGGAUCACCCAUGUAGAAGGUCGAAGAA [Seth Meribre],14.9,20.8
AAGAACGUAGGAUAUACAUGAGGAUCACCCAUGUAAAAGAAAGAAAAGGGAAAGAAAAGUAGAAGGACGAAGAA [Usermaatre-setpenre Ramesses II],42.1,34.4
AAGAACUAAGGAUAUACAAGGAAGAAAGAAAAGAAAAGAAAACAUGAGGAUCACCCAUGUAGAAGGUAGUAGAA [EteRNA is fun!],28.8,24.7
AAGAACUGAGGAUAUGCAAAAGGGAAAGCUGAUCCUCAUCUACAUGAGGAUCACCCAUGUAGAAGGCGGGAAAU [Aveerve],63.4,47.7
AAGAACUUAGGAUAUACAAAAUAAAAGAAAAGAAAGAAAGAACAUGAGGAUCACCCAUGUAGAAGGGAGAAGAA [Nimaatre Amenemhat III],55.9,29.8
AAGAAGAGAGGAUAUACAUGAAAGAAAGAAAAGAAAAGAAAACAUGAGGAUCACCCAUGUAGAAGGCUCAAGAA [EteRNA is fun!],39.4,40.6
AAGAAGAGAGGAUAUACUAAAGAAAUGAAAAGAAAGAAAGAACAUGAGGAUCACCCAUGUAGAAGGCUCAAGAA [Snaaib],27.8,18.1
AAGAAGAGAGGAUAUACUAAAGAAAUGAAAAGAAAUAAAGAACAUGAGGAUCACCCAUGUAGAAGGCUCAAGAA ['Ammu Ahotepre],25.5,21
AAGAAGCAAGGAUAUACAAAAUAAAAGAAAAGAAAGAAAGAACAUGAGGAUCACCCAUGUAGAAGGUGCAAGAA [Djedkheperew],31.1,31
AAGAAGCUAGGAUAUACAAAAUAAAAGAAAAGAAAGAAAGAACAUGAGGAUCACCCAUGUAGAAGGAGCAAGAA [Sebkay],31.3,21.4
AAGAAGGAAGGAUAUACAAAAUAAAAGAAAAGAAAGAAAGAACAUGAGGAUCACCCAUGUAGAAGGUCCAAGAA [Sedjefakare],29.8,34.7
AAGAAGGCAGGAUAUACAUGAGGAUCACCCAUGUAAAAGAAAGAAGGGAAAGAGAAAAGUAGAAGGGCCAAGAA [Hedjkheperre-setpenre Takelot II],43.8,68.4
AAGAAGGGAGGAUAUACAAAAUAAAAGAAAAGAAAGAAAGAACAUGAGGAUCACCCAUGUAGAAGGCCCAAGAA [Iufni],22.3,21.2
AAGAAGGGAGGAUAUACAUGAGGAUCACCCAUGUAAAAGAAAGAAAAGGGAAAGAAAAGUAGAAGGCCCAAGAA [Seqenenre Tao],36.9,40.2
AAGAAGGUAGGAUAUACUAAAGAAAUGAAAAGAAAUAAAGAACAUGAGGAUCACCCAUGUAGAAGGACCAAGAA [Webenre],25.8,32.2
AAGAAGGUAGGAUAUACUAGGGAAACUAAUGCAAAGAUAAAACAUGAGGAUCACCCAUGUAGAAGGGCCAGAAA [JR_Exc002_Sub017],40.8,65.5
